Key:
Assay in all cases: cell-based or functional assay
C4.4a = target: T1, C4.4a (Homo sapiens, UniProt O95274 31-326)
T1 sequence (looked up): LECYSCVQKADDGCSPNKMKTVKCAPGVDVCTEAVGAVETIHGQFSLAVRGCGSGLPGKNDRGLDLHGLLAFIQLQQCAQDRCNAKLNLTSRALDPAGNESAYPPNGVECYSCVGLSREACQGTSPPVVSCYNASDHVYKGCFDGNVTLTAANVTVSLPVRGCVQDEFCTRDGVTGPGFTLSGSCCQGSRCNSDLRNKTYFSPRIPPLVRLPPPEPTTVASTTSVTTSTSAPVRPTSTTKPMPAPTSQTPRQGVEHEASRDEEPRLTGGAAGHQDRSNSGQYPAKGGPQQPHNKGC

Carboanhydrase IX [1] = target: T2, Carboanhydrase IX (Homo sapiens, UniProt Q16790 38-459)
Carboanhydrase IX [2] = target: T2, Carboanhydrase IX; remark: listed apart in the source

Row | Binder | IC50 (nM) A549: C4.4a (C4.4a) [nM] | EC50 (nM) HT29 (Carboanhydrase IX [1]) [nM] | EC50 (nM) SNU-5 (Carboanhydrase IX [1]) [nM] | MIAPaCa 2/CA9+ IC50 (Carboanhydrase IX [2]) [nM]
1 | Example 217 (antibody, human IgG1, lambda, V domains shown, linker-toxophore on cysteine S) VH: EVQLLESGGGLVQPGGSLRLSCAASGFTFSDYQMTWIRQTPGKGLEWVSGISWNGGSTHYADSVKGRFTISRDNSKNTLYLQMNSLRAEDTAVYYCAKGDYLVYSSYYFKSWGQGTLVTVSS VL: not shown | 0.053 | – | – | –
2 | Example 211 (antibody, human IgG1, lambda, V domains shown, linker-toxophore on cysteine S) VH: EVQLLESGGGLVQPGGSLRLSCAASGFTFSSAWMSWVRQAPGKGLEWVSYISSSGSTIYYADSVKGRFTISRDNSKNTLYLQMNSLRAEDTAVYYCAREGLWAFDYWGQGTLVTVSS VL: QSVLTQPPSVSGAPGQRVTISCTGSSSNIGAGYVVHWYQQLPGTAPKLLIYDNNKRPSGVPDRFSGSKSGTSASLAISGLRSEDEADYYCAAYDDSLSGPVFGGGTKLTVLG | 0.076 | – | – | –
3 | Example 215 (antibody, human IgG1, lambda, V domains shown, linker-toxophore on cysteine S) VH: EVQLLESGGGLVQPGGSLRLSCAASGFTFSSAWMSWVRQAPGKGLEWVSYISSSGSTIYYADSVKGRFTISRDNSKNTLYLQMNSLRAEDTAVYYCAREGLWAFDYWGQGTLVTVSS VL: QSVLTQPPSVSGAPGQRVTISCTGSSSNIGAGYVVHWYQQLPGTAPKLLIYDNNKRPSGVPDRFSGSKSGTSASLAISGLRSEDEADYYCAAYDDSLSGPVFGGGTKLTVLG | 0.046 | – | – | –
4 | Example 214 (antibody, human IgG1, lambda, V domains shown, linker-toxophore on cysteine S) VH: EVQLLESGGGLVQPGGSLRLSCAASGFTFSSAWMSWVRQAPGKGLEWVSYISSSGSTIYYADSVKGRFTISRDNSKNTLYLQMNSLRAEDTAVYYCAREGLWAFDYWGQGTLVTVSS VL: QSVLTQPPSVSGAPGQRVTISCTGSSSNIGAGYVVHWYQQLPGTAPKLLIYDNNKRPSGVPDRFSGSKSGTSASLAISGLRSEDEADYYCAAYDDSLSGPVFGGGTKLTVLG | 0.04 | – | – | –
5 | Example 298 (antibody, human IgG1, kappa, V domains shown, linker-toxophore on cysteine S) VH: QVELVESGGGLVQPGGSLRLSCAASGFTFSSYGMSWVRQAPGKGLEWVSGISSLGSTTYYADSVKGRFTISRDNSKNTLYLQMNSLRAEDTAVYYCARTGSPGTFMHGDHWGQGTLVTVSS VL: DIQMTQSPSSLSASVGDRVTITCRASQDINNYLSWYQQKPGKAPKLLIYGASNLQSGVPSRFSGSGSGTDFTLTISSLQPEDFAVYYCQQYYGRPTTFGQGTKVEIKR | – | 2.5 | 7.8 | 1.1
6 | Example 305 (antibody, human IgG1, kappa, V domains shown, linker-toxophore on cysteine S) VH: QVELVESGGGLVQPGGSLRLSCAASGFTFSSYGMSWVRQAPGKGLEWVSGISSLGSTTYYADSVKGRFTISRDNSKNTLYLQMNSLRAEDTAVYYCARTGSPGTFMHGDHWGQGTLVTVSS VL: DIQMTQSPSSLSASVGDRVTITCRASQDINNYLSWYQQKPGKAPKLLIYGASNLQSGVPSRFSGSGSGTDFTLTISSLQPEDFAVYYCQQYYGRPTTFGQGTKVEIKR | – | 0.9 | 2.2 | 2.6
7 | Example 300 (antibody, human IgG1, kappa, V domains shown, linker-toxophore on cysteine S) VH: QVELVESGGGLVQPGGSLRLSCAASGFTFSSYGMSWVRQAPGKGLEWVSGISSLGSTTYYADSVKGRFTISRDNSKNTLYLQMNSLRAEDTAVYYCARTGSPGTFMHGDHWGQGTLVTVSS VL: DIQMTQSPSSLSASVGDRVTITCRASQDINNYLSWYQQKPGKAPKLLIYGASNLQSGVPSRFSGSGSGTDFTLTISSLQPEDFAVYYCQQYYGRPTTFGQGTKVEIKR | – | 5 | – | 0.3
8 | Example 302 (antibody, human IgG1, kappa, V domains shown, linker-toxophore on cysteine S) VH: QVELVESGGGLVQPGGSLRLSCAASGFTFSSYGMSWVRQAPGKGLEWVSGISSLGSTTYYADSVKGRFTISRDNSKNTLYLQMNSLRAEDTAVYYCARTGSPGTFMHGDHWGQGTLVTVSS VL: DIQMTQSPSSLSASVGDRVTITCRASQDINNYLSWYQQKPGKAPKLLIYGASNLQSGVPSRFSGSGSGTDFTLTISSLQPEDFAVYYCQQYYGRPTTFGQGTKVEIKR | – | > 30 | – | 3.9
9 | Example 304 (antibody, human IgG1, kappa, V domains shown, linker-toxophore on cysteine S) VH: QVELVESGGGLVQPGGSLRLSCAASGFTFSSYGMSWVRQAPGKGLEWVSGISSLGSTTYYADSVKGRFTISRDNSKNTLYLQMNSLRAEDTAVYYCARTGSPGTFMHGDHWGQGTLVTVSS VL: DIQMTQSPSSLSASVGDRVTITCRASQDINNYLSWYQQKPGKAPKLLIYGASNLQSGVPSRFSGSGSGTDFTLTISSLQPEDFAVYYCQQYYGRPTTFGQGTKVEIKR | – | 0.05 | 0.6 | 0.019
10 | Example 301 (antibody, human IgG1, kappa, V domains shown, linker-toxophore on cysteine S) VH: QVELVESGGGLVQPGGSLRLSCAASGFTFSSYGMSWVRQAPGKGLEWVSGISSLGSTTYYADSVKGRFTISRDNSKNTLYLQMNSLRAEDTAVYYCARTGSPGTFMHGDHWGQGTLVTVSS VL: DIQMTQSPSSLSASVGDRVTITCRASQDINNYLSWYQQKPGKAPKLLIYGASNLQSGVPSRFSGSGSGTDFTLTISSLQPEDFAVYYCQQYYGRPTTFGQGTKVEIKR | – | > 30 | – | 22
11 | Example 299 (antibody, human IgG1, kappa, V domains shown, linker-toxophore on cysteine S) VH: QVELVESGGGLVQPGGSLRLSCAASGFTFSSYGMSWVRQAPGKGLEWVSGISSLGSTTYYADSVKGRFTISRDNSKNTLYLQMNSLRAEDTAVYYCARTGSPGTFMHGDHWGQGTLVTVSS VL: DIQMTQSPSSLSASVGDRVTITCRASQDINNYLSWYQQKPGKAPKLLIYGASNLQSGVPSRFSGSGSGTDFTLTISSLQPEDFAVYYCQQYYGRPTTFGQGTKVEIKR | – | 4.1 | – | 0.8
12 | Example 306 (antibody, human IgG1, kappa, V domains shown, linker-toxophore on lysine NH) VH: QVELVESGGGLVQPGGSLRLSCAASGFTFSSYGMSWVRQAPGKGLEWVSGISSLGSTTYYADSVKGRFTISRDNSKNTLYLQMNSLRAEDTAVYYCARTGSPGTFMHGDHWGQGTLVTVSS VL: DIQMTQSPSSLSASVGDRVTITCRASQDINNYLSWYQQKPGKAPKLLIYGASNLQSGVPSRFSGSGSGTDFTLTISSLQPEDFAVYYCQQYYGRPTTFGQGTKVEIKR | – | 66 | 33 | 21
13 | Example 303 (antibody, human IgG1, kappa, V domains shown, linker-toxophore on lysine NH) VH: QVELVESGGGLVQPGGSLRLSCAASGFTFSSYGMSWVRQAPGKGLEWVSGISSLGSTTYYADSVKGRFTISRDNSKNTLYLQMNSLRAEDTAVYYCARTGSPGTFMHGDHWGQGTLVTVSS VL: DIQMTQSPSSLSASVGDRVTITCRASQDINNYLSWYQQKPGKAPKLLIYGASNLQSGVPSRFSGSGSGTDFTLTISSLQPEDFAVYYCQQYYGRPTTFGQGTKVEIKR | – | 2.2 | 3.3 | 0.009

— patent US20150246136A1 (Bayer, published 2015)
